We go through 6 molecules from US7358338B2, “Heme peptide” (Nihon University, priority 2002, dated 2008).

A short description of data set [1]: Isoelectric point by isoelectric focusing (Ampholine PAGplate gel, pH 3.5-9.5). Type of data set: physicochemical. Here is the method: (§1) In the following Examples, reagents manufactured by Wako Purechemical Industries were used unless otherwise noted. Isoelectric point was analyzed by isoelectric focusing using Ampholine PAGplate gel (Pharmacia; for IEF; pH 3.5-9.5). Absorption maximum was determined with Hitachi U-3310 Spectrophotometer (Hitachi). Oxidation-reduction potential was determined with Hitachi U-3310 Spectrophotometer (Hitachi) and ORP electrode (Metrohm).

The nature of data set [2]: Measurement of NO-scavenging ability (nitrite/dithionite/methyl viologen reaction, remaining nitrite by diazotization method). In kind it is biochemical. As to conditions: reaction turnover number from Lineweaver-Burk plot; 2, 4, 6, 8 and 10 mM sodium nitrite; pH 7.0; 37° C. As to the method:
To a 10 ml vial, 0.3 ml of 100 mM phosphate buffer (pH 7.0), 0.4 ml of 10 mM sodium nitrite, 0.5 ml of a solution of each of the above-described peptides, and 0.4 ml of 3 mM methyl viologen (Tokyo Kasei Kogyo) were added. Then, the vial was tightly sealed with a butyl rubber stopper and an aluminum seal. This vial was kept at 37° C. for 5 min while feeding argon gas thereinto. Then, 0.3 ml of 100 mM sodium dithionite (dissolved in 50 mM sodium hydrogencarbonate) was added thereto to start the reaction. A 0.2 ml sample was taken from the reaction solution at regular intervals and air-oxidized in a vortex mixer to thereby terminate the reaction.
The amount of the remaining nitrite was determined by the diazotization method. 0.02 ml of the reaction solution was taken, and 1.98 ml of ultrapure water was added thereto. Then, 1 ml of 1% sulfanilamide, 1 ml of 0.02% N-1-naphthyl ethylenediamine chloride and 1 ml of ultrapure water were added thereto. The resultant solution was left at room temperature for 20 min. Then, absorption of the produced azo dye was measured at 540 nm, followed by calculation of the amount of the remaining nitrite from a working curve prepared from a nitrous acid solution of a known concentration.
The measurement of absorption was performed with Shimadzu UV-1600 UV-Visible Spectrophotometer.
Analysis based on reaction kinetics was performed by determining specific activities against 2, 4, 6, 8 and 10 mM sodium nitrite and then calculating the reaction turnover number kcat(s^−1) using a Lineweaver-Burk plot.

Data set [3] in a line: Oxidation-reduction potential (spectrophotometer and ORP electrode). In kind it is physicochemical. As to the method: as §1

On to “mp9: heme peptide, SEQ ID NO: 4, heme bound to Cys 1 and 4; trypsin digest of horse cardiac muscle cytochrome c (CAQCHTVEK; heme bound to Cys1 and Cys4; listed as Equus caballus)”, for which the Isoelectric point in data set [1] worked out at 4.95. Further, the “Rate Constant kcat” value in data set [2] amounted to 1.66 s⁻¹. Further, the Oxidation-reduction potential in data set [3] is recorded as −132 mV.

For the molecule “Horse cardiac muscle cytochrome c: horse cardiac muscle cytochrome c (Wako Purechemical Industries), SEQ ID NO: 1; comparison protein [reference compound]”, the “Rate Constant kcat” value in data set [2] is 0.01521 s⁻¹.

“mp65: heme peptide, SEQ ID NO: 6, heme bound to Cys 14 and 17; cyanogen bromide cleavage of horse cardiac muscle cytochrome c” had an Isoelectric point in data set [1] of 9.52. In data set [2], the “Rate Constant kcat” value was 0.12 s⁻¹. In addition, the Oxidation-reduction potential in data set [3] is given as −62.1 mV.

In turn, “mp15: heme peptide, SEQ ID NO: 3, heme bound to Cys 5 and 8; thermolysin digest of Porphyra yezonesis cytochrome c6 (FSANCAACHAGGNNA; heme bound to Cys5 and Cys8; listed as Porphyra yezoensis)” displayed an Isoelectric point in data set [1] of 4.15. The “Rate Constant kcat” value in data set [2] was found to be 2.54 s⁻¹. For the same molecule, the Oxidation-reduction potential in data set [3] was −82.2 mV.

In data set [1], “mp22: heme peptide, SEQ ID NO: 5, heme bound to Cys 4 and 7; chymotrypsin digest of horse cardiac muscle cytochrome c (VQKCAQCHTVEKGGKHKTGPNL; heme bound to Cys4 and Cys7; listed as Equus caballus)” registered an Isoelectric point of 6.02. The “Rate Constant kcat” value in data set [2] worked out at 0.80 s⁻¹. This molecule also yielded an Oxidation-reduction potential in data set [3] of −66.5 mV.

B1: Red alga Porphyra yezonesis cytochrome c6: cytochrome c6 purified from red alga Porphyra yezonesis, SEQ ID NO: 2; comparison protein (protein, listed as Porphyra yezoensis)
chain: ADLDNGEKVFSANCAACHAGGNNAIMPDKTLKKDVLEANSMNTIDAITYQVQNGKNAMPAFGGRLVDEDIEDAANYVLSQSEKGW
Turning to B1, in data set [2], the “Rate Constant kcat” value turned out to be 0.05 s⁻¹.
